Biological target: T1, Her-2/neu peptide on HLA-B*44:02 (human)
T1 peptide: EEYLVPQQGF
Assay: cytokine release
Method: This example describes the charaterization of the epitope recognized by one of the T cell clones described above, 17D5. This clone recognized APC expressing the ICD or full-length Her-2/neu protein. The HLA-restriction element for the clone was determined to be HLA-B4402 by using a panel of allogenic cell lines matched at various HLA alleles with the T cell clone as APC in gamma interferon Elispot assays. This was confirmed by transduction of HLA-B44-negative, Her-2/neu-positive APC with a B4402-recombinant retrovirus to confer recognition. The region of the ICD recognized by the clone was narrowed by using recombinant retroviruses expressing a series of five fragments of the ICD to transduce B44+APC. […] Predicted B44-binding 9 mer and 10 mer peptides from within this fragment were chosen and synthesized. Of the 13 peptides synthesized, one was recognized by the clone and determined to be the epitope. […] The sequence of this naturally processed Her-2/neu epitope is: […] (SEQ ID NO: 3), position 1021-1030 in the Her-2/neu protein sequence.

binding result: recognises
B1: TCR of the 17D5 T cell clone (TCR, V domains shown)
Valpha: AQSVAQPEDQVNVAEGNPLTVKCTYSVSGNPYLFWYVQYPNRGLQFLLKYITGDNLVKGSYGFEAEFNKSQTSFHLKKPSALVSDSALYFCAVRPNSGYSTLTFGKGTMLLVSP
Vbeta: EAQVTQNPRYLITVTGKKLTVTCSQNMNHEYMSWYRQDPGLGLRQIYYSMNVEVTDKGDVPEGYKVSRKEKRNFPLILESPSPNQTSLYFCASSLDWGGLAGGLGTDTQYFGPGTRLTVL

— patent US20020193329A1 (published 2002)
